Positions count from the first letter of the chain named. Where no end group is shown, it is not given here.
T1: naturally occurring sFRP-1 present in the cultures
T1 sequence (Q8C4U3 32-314, species assumed, looked up): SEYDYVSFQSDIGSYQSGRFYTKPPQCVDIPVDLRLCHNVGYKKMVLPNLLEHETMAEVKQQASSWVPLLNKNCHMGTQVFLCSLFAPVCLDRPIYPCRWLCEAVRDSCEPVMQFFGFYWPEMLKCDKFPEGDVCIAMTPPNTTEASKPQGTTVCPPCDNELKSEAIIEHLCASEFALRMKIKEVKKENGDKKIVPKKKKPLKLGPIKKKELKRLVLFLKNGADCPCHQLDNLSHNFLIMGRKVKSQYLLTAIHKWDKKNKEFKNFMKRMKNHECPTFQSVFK

B1: A-C2 synthetic 12-mer peptide (peptide)
peptide: QGTLVDGRWLQL
notes: also called AC2 peptide
B2: recombinant soluble RANKL (PeproTech) (ligand)
chain: IRAEKAMVDGSWLDLAKRSKLEAQPFAHLTINATDIPSGSHKVSLSSWYHDRGWAKISNMTFSNGKLIVNQDGFYYLYANICFRHHETSGDLATEYLQLMVYVTKTSIKIPSSHTLMKGGSTKYWSGNSEFHFYSINVGGFFKLRSGEEISIEVSNPSLLDPDQDATYFGAFKVRDID
notes: Reagent of the ELISA assays; also called sRANKL
B3: ΔCRD-H/M (other)
single chain: EYDYVSFQSDIGPYQSGRFYTKPPQIAMTPPNATEASKPQGTTVCPPCDNELKSEAIIEHLCASEFALRMKIKEVKKENGDKKIVPKKKKPLKLGPIKKKDLKKLVLYLKNGADCPCHQLDNLSHHFLIMGRKVKSQYLLTAIHKWDKKNKEFKNFMKKMKNHECPTFQSVFKQAYVEQKLISEEDLNSAVDHHHHHH
notes: the sheet prints H/M, the text M/H; also called human sFRP-ΔCRD-M/H; sFRP-1 derivative lacking the CRD
B4: A-C2-expressing M13 phage (peptide linked to gene III coat protein) (other)
chain: QGTLVDGRWLQL
modifications: not fully specified
notes: also called A-C2 phage; not shown: M13 phage gene III coat protein
B5: A-E4-expressing M13 phage (peptide linked to gene III coat protein) (other)
chain: VVDGRWVQGLED
modifications: not fully specified
notes: Printed as VVDGRWVQGLED; also called A-E4 phage; not shown: M13 phage gene III coat protein
B6: B-B9 M13 phage (peptide linked to gene III coat protein) (other)
chain: LVDGRWLYNPHH
modifications: not fully specified
notes: the text gives 27; also called B-B9 phage; not shown: M13 phage gene III coat protein
B7: recombinant human secreted Frizzled-related protein-1 (sFRP-1) (other)
chain: T1 sequence (Q8C4U3 32-314, species assumed, looked up) with S14P, V32A, M76A, T143A, E211D, R214K, F218Y, N236H, R269K
notes: also called full-length sFRP-1

Experiments:
[1] = biological target: B7; assay: Isothermal titration calorimetry: A-C2 peptide (200 µM in PBS) injected into sFRP-1 (10 µM in PBS); no unit printed in the box
Procedure: (§1) ITC experiments were performed with a VP-ITC MicroCalorimeter MicroCal, LLC, Northhampton, Mass.) according to the manufacturer's User Manual. In brief, 6 μl aliquots of A-C2 (200 μM, dissolved in PBS) were injected at regular intervals into a chamber containing sFRP-1 (10 μM, also in PBS). Increases in temperature of the chamber resulting from the binding of A-C2 and sFRP-1 were determined as a measure of the heat produced by the binding reaction. Several parameters, included enthalpy and dissociation constant, were calculated from these measurements. This technique is commonly used to quantify the thermodynamic properties of binding interactions between proteins and peptides.
(§2) Binding was evident, as heat was generated when aliquots of AC2 solution were added to a chamber containing sFRP-1 dissolved in PBS. By contrast, no heat was produced when AC2 was added to a chamber containing only PBS.

[2] = biological target: B7; assay: Isothermal titration calorimetry: A-C2 peptide (200 µM in PBS) injected into sFRP-1 (10 µM in PBS)
Procedure: as §1, §2

[3] = biological target: B7; assay: isothermal titration calorimetry, A-C2 (200 uM) injected into sFRP-1 (10 uM) in PBS
Procedure: as §1, §2

[4] = biological target: T1, naturally occurring sFRP-1 present in …; assay: cell-based or functional assay
[5] = biological target: T2, bovine serum albumin (bovine, UniProt P02769 25-607); assay: ELISA: serial dilutions of soluble RANKL on wells treated with BSA only; detection with RANKL antibody, AP-coupled secondary antibody and pNPP
T2 construct: Control coat; also called BSA
T2 sequence (P02769 25-607 limits assumed): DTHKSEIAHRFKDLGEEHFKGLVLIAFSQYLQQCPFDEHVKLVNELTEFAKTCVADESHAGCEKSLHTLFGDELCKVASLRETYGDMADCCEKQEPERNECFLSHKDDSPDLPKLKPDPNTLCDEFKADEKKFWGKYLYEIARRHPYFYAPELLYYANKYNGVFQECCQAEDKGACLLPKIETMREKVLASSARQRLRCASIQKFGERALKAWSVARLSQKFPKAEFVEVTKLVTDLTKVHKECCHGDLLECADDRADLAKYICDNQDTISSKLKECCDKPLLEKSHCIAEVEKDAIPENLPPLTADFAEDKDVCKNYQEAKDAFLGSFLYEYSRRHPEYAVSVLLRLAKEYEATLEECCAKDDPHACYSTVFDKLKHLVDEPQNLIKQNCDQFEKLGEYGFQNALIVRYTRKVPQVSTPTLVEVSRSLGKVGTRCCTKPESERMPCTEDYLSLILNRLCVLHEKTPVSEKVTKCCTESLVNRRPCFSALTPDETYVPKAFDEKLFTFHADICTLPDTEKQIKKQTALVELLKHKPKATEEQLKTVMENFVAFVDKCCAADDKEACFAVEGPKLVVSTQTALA
Procedure: (§3) ELISA experiments were generally performed as previously described (Uren et al., J. Biol. Chem. 275:4374-4382, 2000), with modifications depending on the sFRP binding partner to be tested. Typically, wells were coated with 0.5 or 1 μg of sFRP-1, blocked with BSA (0.2%, 1%, or 4%) and then incubated with putative binding partner overnight at room temperature. When investigating the binding of peptide/AP chimeras, after aspiration of bacterial broths, wells were washed and incubated with p-nitrophenolphosphate (pNPP). Color development was determined at 405 nm with an ELISA reader. For competition experiments, soluble peptides were preincubated with peptide/AP chimeras in bacterial broth for 30 min at room temperature prior to transfer into ELISA wells coated with sFRP-1 or BSA. When testing RANKL binding to sFRP-1, serial dilutions of soluble RANKL were assayed in replicate. Following overnight incubation at room temperature, RANKL solutions were aspirated and bound RANKL was detected by sequential incubations with primary antibody to RANKL, secondary antibody coupled with AP and pNPP. Similar experimental designs were employed when other TNFα family members were examined for binding to sFRPs, and when sFRP-1 derivatives or sFRP-2 were the binding targets for RANKL.
(§4) The possibility that sFRP-1 (SEQ ID NO: 3) and RANKL interact directly with each other was tested using an ELISA assay. […]

[6] = biological target: B7; assay: ELISA: serial dilutions of soluble RANKL on sFRP-1-coated, BSA-blocked wells; detection with RANKL antibody, AP-coupled secondary antibody and pNPP
Procedure: as §3, §4

[7] = biological target: B2; assay: ELISA: wells coated with sFRP-1 or derivative, incubated with soluble RANKL, bound RANKL detected; triplicates
Procedure: FIG. 12 is a graph of the binding avidity of several sFRP-1 deletion mutants for RANKL in ELISA experiments. Wells were coated either with full-length sFRP-1 or with any one of a set of epitope-tagged sFRP-1 deletion mutants (Uren et al., J Biol Chem 275:4374-4382, 2000) or BSA control, and then sequentially incubated with soluble RANKL and reagents to detect RANKL bound to the wells. The results shown are the mean +/−S.D. of triplicate measurements from a representative experiment.
ELISA experiments were generally performed as previously described (Uren et al., J. Biol. Chem. 275:4374-4382, 2000), with modifications depending on the sFRP binding partner to be tested. Typically, wells were coated with 0.5 or 1 μg of sFRP-1, blocked with BSA (0.2%, 1%, or 4%) and then incubated with putative binding partner overnight at room temperature. When investigating the binding of peptide/AP chimeras, after aspiration of bacterial broths, wells were washed and incubated with p-nitrophenolphosphate (pNPP). Color development was determined at 405 nm with an ELISA reader. […] Following overnight incubation at room temperature, RANKL solutions were aspirated and bound RANKL was detected by sequential incubations with primary antibody to RANKL, secondary antibody coupled with AP and pNPP. […]

[8] = biological target: B7; assay: phage ELISA, sFRP-1-coated against BSA-coated wells
Procedure: Amplified phage recovered from bacterial broth after this first enrichment step were subjected to two more rounds of panning in wells coated with sFRP-1 as described in the previous paragraph, except that the phage were incubated for only 2 hours and 1 hour in the second and third panning steps, respectively. After the third round of panning, phage obtained from the sFRP-1-coated well were titered and seeded on a lawn of bacteria to permit isolation of phage from 200 separate colonies. Bacteria from each of these colonies were grown in broth, pelleted by centrifugation and phage retrieved in the supernatant. Each of these phage supernatants was tested for binding to sFRP-1-coated ELISA wells versus wells only coated with the BSA blocking solution. Phage were detected in this assay with primary antibody directed against phage coat protein (Pharmacia Biotech, Uppsala, Sweden, #27-9411-01) and standard detection reagents.
To identify peptide sequences that bind sFRP-1, ˜25×10⁹ phages from a library containing a diverse repertoire of twelve-amino acid residue segments linked to the gene III coat protein of M13 phage were screened. After three successive rounds of panning for phage that bound to ELISA wells preincubated with sFRP-1, the phage preparation selected for its ability to bind sFRP-1 was titered and then plated on a lawn of bacteria. Phage from 200 separate colonies of lysed bacteria were picked, grown in bacterial broth overnight, recovered in supernatant, and tested for their ability to bind preferentially to sFRP-1 versus BSA in an ELISA. Phage that bound at least five times more avidly to sFRP-1 than BSA-coated wells were subjected to nucleotide sequence analysis to determine the identity of the peptide sequence responsible for this binding specificity.

[9] = biological target: T3, alkaline phosphatase itself (UniProt P00634 22-471 = phosphatase, limits assumed); assay: ELISA, sFRP-1-coated wells against BSA wells
T3 construct: Control for the peptide/AP fusions; also called AP
T3 sequence (P00634 22-471 limits assumed): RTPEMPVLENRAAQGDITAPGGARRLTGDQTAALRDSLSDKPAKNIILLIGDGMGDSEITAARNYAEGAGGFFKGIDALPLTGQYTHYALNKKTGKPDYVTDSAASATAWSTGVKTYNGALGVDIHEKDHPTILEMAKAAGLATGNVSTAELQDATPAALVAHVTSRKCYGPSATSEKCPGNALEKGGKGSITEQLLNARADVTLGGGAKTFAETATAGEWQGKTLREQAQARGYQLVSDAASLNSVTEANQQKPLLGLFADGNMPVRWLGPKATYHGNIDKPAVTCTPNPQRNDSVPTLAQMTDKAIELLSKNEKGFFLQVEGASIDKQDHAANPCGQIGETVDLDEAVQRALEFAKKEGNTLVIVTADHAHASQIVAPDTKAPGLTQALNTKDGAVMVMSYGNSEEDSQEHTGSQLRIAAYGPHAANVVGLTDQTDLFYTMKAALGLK

Binder: B1
- ΔH [1]: -3620
- ΔS [1]: 12.6
- N [2]: 1.14
- Kd [3]: 3.9 µM
- TRAP+ multinucleated cells, osteoblast and adult spleen cell co-cultures [4]: 10 fold increase

Binder: B2
- binding result [5]: no binding (tested: 10 ug/ml)
- EC50 (read off the curve) [6]: ~1 mg/L

Binder: B3
- binding result [7]: no binding

Binder: B4
- Specificity (sFRP-1/BSA) [8]: 10 ratio of binding to sFRP-1 wells over BSA wells

Binder: B5
- Specificity (sFRP-1/BSA) [8]: 10 ratio of binding to sFRP-1 wells over BSA wells

Binder: B6
- Specificity (sFRP-1/BSA) [8]: 5 ratio of binding to sFRP-1 wells over BSA wells

Binder: B7
- binding result [9]: no binding

— US20040077828A1 (US Dept. of Health and Human Services, published 2004)
